Measured values taken from patent publication US7312188B2, “Peptide derivatives having β-secretase inhibitory activity” (priority 2003, dated 2007).
Numbered stars: 1 amine (or outer) side, 2 acyl side, 3 side chain; on linkers, the order of the positions; unused ones are H or OH. Square brackets hold non-standard residues; d marks the D form. β3hPhe(2R-OH) = O=C([C@H](O)[C@H](Cc1ccccc1)N[*:1])[*:2]

molecular target: T1, recombinant human BACE-1 (rhBACE-1) (Homo sapiens, UniProt P56817); assay: BACE1 inhibitory activity, reverse phase HPLC quantitation of N-terminal fragment of fluorogenic substrate; format: biochemical; conditions: 1 μL of inhibitor solution in DMSO (100 μM) in 50 μL reaction; MES buffer pH 5.0; 37° C., 60 minutes
T1 construct: expressed as only an extracellular region (amino acid 1-460 residues) of recombinant human β-secretase; His tag (C); purchased R&D systems (Minneapolis, Minn.); host or cells: murine myeloma cell line NS0
How it was run: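 rhBACE-1 ectodomain (residues 1-460, C-terminal His tag, NS0-expressed) in MES buffer pH 5.0 with inhibitor (diluted in DMSO, 100 μM solution) and MCA/DNP fluorogenic peptide (250 μM stock), 60 min at 37 °C, TCA stop. N-terminal fragment quantified by reverse-phase HPLC fluorescence (Ex 328/Em 393 nm); inhibition % derived.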

T1 sequence (P56817 22-460 limits assumed): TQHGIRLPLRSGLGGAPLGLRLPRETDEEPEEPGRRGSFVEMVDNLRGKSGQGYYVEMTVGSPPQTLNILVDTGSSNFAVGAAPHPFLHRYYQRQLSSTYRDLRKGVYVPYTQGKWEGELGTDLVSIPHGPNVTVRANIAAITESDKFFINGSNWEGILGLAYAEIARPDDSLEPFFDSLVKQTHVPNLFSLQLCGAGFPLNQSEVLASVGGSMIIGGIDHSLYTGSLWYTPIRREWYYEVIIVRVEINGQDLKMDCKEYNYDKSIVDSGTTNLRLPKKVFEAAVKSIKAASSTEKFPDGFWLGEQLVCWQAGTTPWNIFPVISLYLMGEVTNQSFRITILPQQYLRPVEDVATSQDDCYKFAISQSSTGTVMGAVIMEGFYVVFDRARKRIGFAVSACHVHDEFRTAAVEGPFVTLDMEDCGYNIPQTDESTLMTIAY

Activity (BACE1 inhibition %) | Substance
78.43% | H-Glu-Val-Leu-Pns-Ala-Glu-Glu-Phe-OH (H-EVL[β3hPhe(2R-OH)]AEEF-OH; SMILES CC(C)C[C@H](NC(=O)[C@@H](NC(=O)[C@@H](N)CCC(=O)O)C(C)C)C(=O)N[C@@H](Cc1ccccc1)[C@@H](O)C(=O)N[C@@H](C)C(=O)N[C@@H](CCC(=O)O)C(=O)N[C@@H](CCC(=O)O)C(=O)N[C@@H](Cc1ccccc1)C(=O)O) [Example 27]
89.65% | H-Glu-Val-Leu-Pns-Asp-Ala-Glu-Phe-OH (H-EVL[β3hPhe(2R-OH)]DAEF-OH; SMILES CC(C)C[C@H](NC(=O)[C@@H](NC(=O)[C@@H](N)CCC(=O)O)C(C)C)C(=O)N[C@@H](Cc1ccccc1)[C@@H](O)C(=O)N[C@@H](CC(=O)O)C(=O)N[C@@H](C)C(=O)N[C@@H](CCC(=O)O)C(=O)N[C@@H](Cc1ccccc1)C(=O)O) [Example 7]
56.57% | H-Glu-Val-Leu-Pns-Asp-Ala-Leu-Phe-OH (H-EVL[β3hPhe(2R-OH)]DALF-OH; SMILES CC(C)C[C@H](NC(=O)[C@H](C)NC(=O)[C@H](CC(=O)O)NC(=O)[C@H](O)[C@H](Cc1ccccc1)NC(=O)[C@H](CC(C)C)NC(=O)[C@@H](NC(=O)[C@@H](N)CCC(=O)O)C(C)C)C(=O)N[C@@H](Cc1ccccc1)C(=O)O) [Example 30]
66.56% | H-Glu-Val-Leu-Pns-Asp-Ala-Phe-Phe-OH (H-EVL[β3hPhe(2R-OH)]DAFF-OH; SMILES CC(C)C[C@H](NC(=O)[C@@H](NC(=O)[C@@H](N)CCC(=O)O)C(C)C)C(=O)N[C@@H](Cc1ccccc1)[C@@H](O)C(=O)N[C@@H](CC(=O)O)C(=O)N[C@@H](C)C(=O)N[C@@H](Cc1ccccc1)C(=O)N[C@@H](Cc1ccccc1)C(=O)O) [Example 31]
63.71% | H-Glu-Val-Leu-Pns-Asp-OH [Example 34]

The remaining lines, values behind:

Substance | Activity (BACE1 inhibition %)
H-Glu-Val-Leu-Pns-Ala-Phe-Glu-Phe-OH (H-EVL[β3hPhe(2R-OH)]AFEF-OH; SMILES CC(C)C[C@H](NC(=O)[C@@H](NC(=O)[C@@H](N)CCC(=O)O)C(C)C)C(=O)N[C@@H](Cc1ccccc1)[C@@H](O)C(=O)N[C@@H](C)C(=O)N[C@@H](Cc1ccccc1)C(=O)N[C@@H](CCC(=O)O)C(=O)N[C@@H](Cc1ccccc1)C(=O)O) [Example 26] | 60.23%
H-Glu-Val-Leu-Pns-Asp-Ala-Gln-Phe-OH (H-EVL[β3hPhe(2R-OH)]DAQF-OH; SMILES CC(C)C[C@H](NC(=O)[C@@H](NC(=O)[C@@H](N)CCC(=O)O)C(C)C)C(=O)N[C@@H](Cc1ccccc1)[C@@H](O)C(=O)N[C@@H](CC(=O)O)C(=O)N[C@@H](C)C(=O)N[C@@H](CCC(N)=O)C(=O)N[C@@H](Cc1ccccc1)C(=O)O) [Example 28] | 55.88%
H-Glu-Val-Leu-Pns-Asp-Ala-Glu-Gly-OH (H-EVL[β3hPhe(2R-OH)]DAEG-OH; SMILES CC(C)C[C@H](NC(=O)[C@@H](NC(=O)[C@@H](N)CCC(=O)O)C(C)C)C(=O)N[C@@H](Cc1ccccc1)[C@@H](O)C(=O)N[C@@H](CC(=O)O)C(=O)N[C@@H](C)C(=O)N[C@@H](CCC(=O)O)C(=O)NCC(=O)O) [Example 45] | 66.79%
H-Glu-Val-Leu-Pns-Asp-Ala-Glu-OH [Example 32] | 71.60%
H-Glu-Val-Leu-Pns-Asp-Ala-Val-Phe-OH (H-EVL[β3hPhe(2R-OH)]DAVF-OH; SMILES CC(C)C[C@H](NC(=O)[C@@H](NC(=O)[C@@H](N)CCC(=O)O)C(C)C)C(=O)N[C@@H](Cc1ccccc1)[C@@H](O)C(=O)N[C@@H](CC(=O)O)C(=O)N[C@@H](C)C(=O)N[C@H](C(=O)N[C@@H](Cc1ccccc1)C(=O)O)C(C)C) [Example 29] | 57.47%
H-Glu-Val-Leu-Pns-Asp-Gly-Glu-Phe-OH (H-EVL[β3hPhe(2R-OH)]DGEF-OH; SMILES CC(C)C[C@H](NC(=O)[C@@H](NC(=O)[C@@H](N)CCC(=O)O)C(C)C)C(=O)N[C@@H](Cc1ccccc1)[C@@H](O)C(=O)N[C@@H](CC(=O)O)C(=O)NCC(=O)N[C@@H](CCC(=O)O)C(=O)N[C@@H](Cc1ccccc1)C(=O)O) [Example 43] | 81.23%
H-Glu-Val-Leu-Pns-Glu-Ala-Glu-Phe-OH (H-EVL[β3hPhe(2R-OH)]EAEF-OH; SMILES CC(C)C[C@H](NC(=O)[C@@H](NC(=O)[C@@H](N)CCC(=O)O)C(C)C)C(=O)N[C@@H](Cc1ccccc1)[C@@H](O)C(=O)N[C@@H](CCC(=O)O)C(=O)N[C@@H](C)C(=O)N[C@@H](CCC(=O)O)C(=O)N[C@@H](Cc1ccccc1)C(=O)O) [Example 15] | 54.52%
H-Glu-Val-Leu-Pns-Gly-Ala-Glu-Phe-OH (H-EVL[β3hPhe(2R-OH)]GAEF-OH; SMILES CC(C)C[C@H](NC(=O)[C@@H](NC(=O)[C@@H](N)CCC(=O)O)C(C)C)C(=O)N[C@@H](Cc1ccccc1)[C@@H](O)C(=O)NCC(=O)N[C@@H](C)C(=O)N[C@@H](CCC(=O)O)C(=O)N[C@@H](Cc1ccccc1)C(=O)O) [Example 42] | 56.72%
β-ODap-Val-Leu-Pns-Asp-Ala-Gly-Phe-OH ({β‑ODap}-VL[β3hPhe(2R-OH)]DAGF-OH) [Example 63] | 96.66%

same assay, conditions: pH 5, 100 µM

Substance | Activity (BACE1 inhibition %)
H-Glu-Val-Leu-Pns-Asp-Ala-Gly-Phe-OH [Example 44] | 56.30%
